Experiments:
[1] = target: T1, EGFR-ECD (UniProt P00533 25-645); assay: BLI
[2] = target: T1, EGFR-ECD; assay: BLI; remark: listed apart in the source

B1: Anti-EGFR mAb (antibody, V domains shown)
VH: EVQLVESGGGLVQPGGSLRLSCAASGFSLTNRGVHWVRQAPGKGLEWVGVIWSGGNTDYNTPFTSRFTISRDNSKNTLYLQMNSLRAEDTAVYYCARALTYYDYEFAYWGQGTLVTVSS
VL: not shown
- koff [1]: 0.00034 s⁻¹
- kon [1]: 350000 M⁻¹ s⁻¹
- Kd [2]: ~1 nM

Reference: publication PMC5680790 (mAbs, 2017)
